How the values were obtained:
purified protein [1] = substrate: N=C(N)NCCCC[C@H](N)C(=O)O; assay: purified protein; assay type: biochemical, Homo sapiens; conditions: amino donor, co-substrate 1 mM pyruvate, PLP added (200 μM in methods, 100 μM in Figure 3 legend), potassium phosphate pH 8, 0.15 M NaCl, 25 °C
purified protein [2] = substrate: C[C@H](N)C(=O)O; assay: purified protein; conditions: amino donor, co-substrate 1 mM glyoxylate, PLP added (200 μM in methods, 100 μM in Figure 3 legend), potassium phosphate pH 8, 0.15 M NaCl, 25 °C

B1: human alanine:glyoxylate aminotransferase 2 (AGXT2) (Homo sapiens) (protein)
chain: LHTKPRMPPCDFMPERYQSLGYNRVLEIHKEHLSPVVTAYFQKPLLLHQGHMEWLFDAEGSRYLDFFSGIVTVSVGHCHPKVNAVAQKQLGRLWHTSTVFFHPPMHEYAEKLAALLPEPLKVIFLVNSGSEANELAMLMARAHSNNIDIISFRGAYHGCSPYTLGLTNVGTYKMELPGGTGCQPTMCPDVFRGPWGGSHCRDSPVQTIRKCSCAPDCCQAKDQYIEQFKDTLSTSVAKSIAGFFAEPIQGVNGVVQYPKGFLKEAFELVRARGGVCIADEVQTGFGRLGSHFWGFQTHDVLPDIVTMAKGIGNGFPMAAVITTPEIAKSLAKCLQHFNTFGGNPMACAIGSAVLEVIKEENLQENSQEVGTYMLLKFAKLRDEFEIVGDVRGKGLMIGIEMVQDKISCRPLPREEVNQIHEDCKHMGLLVGRGSIFSQTFRIAPSMCITKPEVDFAVEVFRSALTQHMERRAK
notes: C-terminal FLAG fusion under CAG promoter; tag kept
- Km (purified protein [1]): 24 ± 3 mM
- kcat (purified protein [1]): 0.0188 ± 0.00067 s⁻¹
- kcat/Km (purified protein [1]): 0.783 ± 0.1 M⁻¹ s⁻¹
- Km (purified protein [2]): 25 ± 3 mM
- kcat (purified protein [2]): 0.142 ± 0.0083 s⁻¹
- kcat/Km (purified protein [2]): 5.67 M⁻¹ s⁻¹
